21 molecules from US20110118447A1 can be followed below.

First the molecules themselves.
B1: C5A (XPA23) VL S93N (antibody, V domains shown)
VH: EVQLLESGGGLVQPGGSLRLSCAASGFTFSKYFMFWVRQAPGKGLEWVSVISPSGGMTRYADSVKGRFTISRDNSKNTLYLQMNSLRAEDTAVYYCARVGYGGNSDYWGQGTLVTVSS
VL: DIQMTQSPSSVSASVGDRLTIICRASQDINRWLAWYQQTPGNAPKLLIHSATSLQSGVPSRFSGSGSGTDFTLTINSLQPEDFATYYCQQADNFPLTFGGGTKVEIK
B2: C5A (XPA23) VL P95E (antibody, V domains shown)
VH: EVQLLESGGGLVQPGGSLRLSCAASGFTFSKYFMFWVRQAPGKGLEWVSVISPSGGMTRYADSVKGRFTISRDNSKNTLYLQMNSLRAEDTAVYYCARVGYGGNSDYWGQGTLVTVSS
VL: DIQMTQSPSSVSASVGDRLTIICRASQDINRWLAWYQQTPGNAPKLLIHSATSLQSGVPSRFSGSGSGTDFTLTINSLQPEDFATYYCQQADSFELTFGGGTKVEIK
B3: C5A (XPA23) VL Q27A (antibody, V domains shown)
VH: EVQLLESGGGLVQPGGSLRLSCAASGFTFSKYFMFWVRQAPGKGLEWVSVISPSGGMTRYADSVKGRFTISRDNSKNTLYLQMNSLRAEDTAVYYCARVGYGGNSDYWGQGTLVTVSS
VL: DIQMTQSPSSVSASVGDRLTIICRASADINRWLAWYQQTPGNAPKLLIHSATSLQSGVPSRFSGSGSGTDFTLTINSLQPEDFATYYCQQADSFPLTFGGGTKVEIK
B4: C5A (XPA23) VL L96H (antibody, V domains shown)
VH: EVQLLESGGGLVQPGGSLRLSCAASGFTFSKYFMFWVRQAPGKGLEWVSVISPSGGMTRYADSVKGRFTISRDNSKNTLYLQMNSLRAEDTAVYYCARVGYGGNSDYWGQGTLVTVSS
VL: DIQMTQSPSSVSASVGDRLTIICRASQDINRWLAWYQQTPGNAPKLLIHSATSLQSGVPSRFSGSGSGTDFTLTINSLQPEDFATYYCQQADSFPHTFGGGTKVEIK
B5: C5A (XPA23) VL Q27I (antibody, V domains shown)
VH: EVQLLESGGGLVQPGGSLRLSCAASGFTFSKYFMFWVRQAPGKGLEWVSVISPSGGMTRYADSVKGRFTISRDNSKNTLYLQMNSLRAEDTAVYYCARVGYGGNSDYWGQGTLVTVSS
VL: DIQMTQSPSSVSASVGDRLTIICRASIDINRWLAWYQQTPGNAPKLLIHSATSLQSGVPSRFSGSGSGTDFTLTINSLQPEDFATYYCQQADSFPLTFGGGTKVEIK
B6: C5A (XPA23) VL S93Y (antibody, V domains shown)
VH: EVQLLESGGGLVQPGGSLRLSCAASGFTFSKYFMFWVRQAPGKGLEWVSVISPSGGMTRYADSVKGRFTISRDNSKNTLYLQMNSLRAEDTAVYYCARVGYGGNSDYWGQGTLVTVSS
VL: DIQMTQSPSSVSASVGDRLTIICRASQDINRWLAWYQQTPGNAPKLLIHSATSLQSGVPSRFSGSGSGTDFTLTINSLQPEDFATYYCQQADYFPLTFGGGTKVEIK
B7: C5A (XPA23) VL D28A (antibody, V domains shown)
VH: EVQLLESGGGLVQPGGSLRLSCAASGFTFSKYFMFWVRQAPGKGLEWVSVISPSGGMTRYADSVKGRFTISRDNSKNTLYLQMNSLRAEDTAVYYCARVGYGGNSDYWGQGTLVTVSS
VL: DIQMTQSPSSVSASVGDRLTIICRASQAINRWLAWYQQTPGNAPKLLIHSATSLQSGVPSRFSGSGSGTDFTLTINSLQPEDFATYYCQQADSFPLTFGGGTKVEIK
B8: C5A (XPA23) VL Q27F (antibody, V domains shown)
VH: EVQLLESGGGLVQPGGSLRLSCAASGFTFSKYFMFWVRQAPGKGLEWVSVISPSGGMTRYADSVKGRFTISRDNSKNTLYLQMNSLRAEDTAVYYCARVGYGGNSDYWGQGTLVTVSS
VL: DIQMTQSPSSVSASVGDRLTIICRASFDINRWLAWYQQTPGNAPKLLIHSATSLQSGVPSRFSGSGSGTDFTLTINSLQPEDFATYYCQQADSFPLTFGGGTKVEIK
B9: C5A (XPA23) VL S93Q (antibody, V domains shown)
VH: EVQLLESGGGLVQPGGSLRLSCAASGFTFSKYFMFWVRQAPGKGLEWVSVISPSGGMTRYADSVKGRFTISRDNSKNTLYLQMNSLRAEDTAVYYCARVGYGGNSDYWGQGTLVTVSS
VL: DIQMTQSPSSVSASVGDRLTIICRASQDINRWLAWYQQTPGNAPKLLIHSATSLQSGVPSRFSGSGSGTDFTLTINSLQPEDFATYYCQQADQFPLTFGGGTKVEIK
B10: C5A (XPA23) VL D28G (antibody, V domains shown)
VH: EVQLLESGGGLVQPGGSLRLSCAASGFTFSKYFMFWVRQAPGKGLEWVSVISPSGGMTRYADSVKGRFTISRDNSKNTLYLQMNSLRAEDTAVYYCARVGYGGNSDYWGQGTLVTVSS
VL: DIQMTQSPSSVSASVGDRLTIICRASQGINRWLAWYQQTPGNAPKLLIHSATSLQSGVPSRFSGSGSGTDFTLTINSLQPEDFATYYCQQADSFPLTFGGGTKVEIK
B11: C5A (XPA23) VL D28V (antibody, V domains shown)
VH: EVQLLESGGGLVQPGGSLRLSCAASGFTFSKYFMFWVRQAPGKGLEWVSVISPSGGMTRYADSVKGRFTISRDNSKNTLYLQMNSLRAEDTAVYYCARVGYGGNSDYWGQGTLVTVSS
VL: DIQMTQSPSSVSASVGDRLTIICRASQVINRWLAWYQQTPGNAPKLLIHSATSLQSGVPSRFSGSGSGTDFTLTINSLQPEDFATYYCQQADSFPLTFGGGTKVEIK
B12: C5A (XPA23) VL Q27L (antibody, V domains shown)
VH: EVQLLESGGGLVQPGGSLRLSCAASGFTFSKYFMFWVRQAPGKGLEWVSVISPSGGMTRYADSVKGRFTISRDNSKNTLYLQMNSLRAEDTAVYYCARVGYGGNSDYWGQGTLVTVSS
VL: DIQMTQSPSSVSASVGDRLTIICRASLDINRWLAWYQQTPGNAPKLLIHSATSLQSGVPSRFSGSGSGTDFTLTINSLQPEDFATYYCQQADSFPLTFGGGTKVEIK
B13: C5A (XPA23) VL D28F (antibody, V domains shown)
VH: EVQLLESGGGLVQPGGSLRLSCAASGFTFSKYFMFWVRQAPGKGLEWVSVISPSGGMTRYADSVKGRFTISRDNSKNTLYLQMNSLRAEDTAVYYCARVGYGGNSDYWGQGTLVTVSS
VL: DIQMTQSPSSVSASVGDRLTIICRASQFINRWLAWYQQTPGNAPKLLIHSATSLQSGVPSRFSGSGSGTDFTLTINSLQPEDFATYYCQQADSFPLTFGGGTKVEIK
B14: C5A (XPA23) VL D28L (antibody, V domains shown)
VH: EVQLLESGGGLVQPGGSLRLSCAASGFTFSKYFMFWVRQAPGKGLEWVSVISPSGGMTRYADSVKGRFTISRDNSKNTLYLQMNSLRAEDTAVYYCARVGYGGNSDYWGQGTLVTVSS
VL: DIQMTQSPSSVSASVGDRLTIICRASQLINRWLAWYQQTPGNAPKLLIHSATSLQSGVPSRFSGSGSGTDFTLTINSLQPEDFATYYCQQADSFPLTFGGGTKVEIK
B15: C5A (XPA23) VL P95S (antibody, V domains shown)
VH: EVQLLESGGGLVQPGGSLRLSCAASGFTFSKYFMFWVRQAPGKGLEWVSVISPSGGMTRYADSVKGRFTISRDNSKNTLYLQMNSLRAEDTAVYYCARVGYGGNSDYWGQGTLVTVSS
VL: DIQMTQSPSSVSASVGDRLTIICRASQDINRWLAWYQQTPGNAPKLLIHSATSLQSGVPSRFSGSGSGTDFTLTINSLQPEDFATYYCQQADSFSLTFGGGTKVEIK
B16: C5A (XPA23) VL P95D (antibody, V domains shown)
VH: EVQLLESGGGLVQPGGSLRLSCAASGFTFSKYFMFWVRQAPGKGLEWVSVISPSGGMTRYADSVKGRFTISRDNSKNTLYLQMNSLRAEDTAVYYCARVGYGGNSDYWGQGTLVTVSS
VL: DIQMTQSPSSVSASVGDRLTIICRASQDINRWLAWYQQTPGNAPKLLIHSATSLQSGVPSRFSGSGSGTDFTLTINSLQPEDFATYYCQQADSFDLTFGGGTKVEIK
B17: C5A (XPA23) VL L96N (antibody, V domains shown)
VH: EVQLLESGGGLVQPGGSLRLSCAASGFTFSKYFMFWVRQAPGKGLEWVSVISPSGGMTRYADSVKGRFTISRDNSKNTLYLQMNSLRAEDTAVYYCARVGYGGNSDYWGQGTLVTVSS
VL: DIQMTQSPSSVSASVGDRLTIICRASQDINRWLAWYQQTPGNAPKLLIHSATSLQSGVPSRFSGSGSGTDFTLTINSLQPEDFATYYCQQADSFPNTFGGGTKVEIK
B18: C5A (XPA23) VL L96T (antibody, V domains shown)
VH: EVQLLESGGGLVQPGGSLRLSCAASGFTFSKYFMFWVRQAPGKGLEWVSVISPSGGMTRYADSVKGRFTISRDNSKNTLYLQMNSLRAEDTAVYYCARVGYGGNSDYWGQGTLVTVSS
VL: DIQMTQSPSSVSASVGDRLTIICRASQDINRWLAWYQQTPGNAPKLLIHSATSLQSGVPSRFSGSGSGTDFTLTINSLQPEDFATYYCQQADSFPTTFGGGTKVEIK
B19: C5A (XPA23) VL L96S (antibody, V domains shown)
VH: EVQLLESGGGLVQPGGSLRLSCAASGFTFSKYFMFWVRQAPGKGLEWVSVISPSGGMTRYADSVKGRFTISRDNSKNTLYLQMNSLRAEDTAVYYCARVGYGGNSDYWGQGTLVTVSS
VL: DIQMTQSPSSVSASVGDRLTIICRASQDINRWLAWYQQTPGNAPKLLIHSATSLQSGVPSRFSGSGSGTDFTLTINSLQPEDFATYYCQQADSFPSTFGGGTKVEIK
B20: C5A (XPA23) VL D28W (antibody, V domains shown)
VH: EVQLLESGGGLVQPGGSLRLSCAASGFTFSKYFMFWVRQAPGKGLEWVSVISPSGGMTRYADSVKGRFTISRDNSKNTLYLQMNSLRAEDTAVYYCARVGYGGNSDYWGQGTLVTVSS
VL: DIQMTQSPSSVSASVGDRLTIICRASQWINRWLAWYQQTPGNAPKLLIHSATSLQSGVPSRFSGSGSGTDFTLTINSLQPEDFATYYCQQADSFPLTFGGGTKVEIK
B21: C5A (XPA23) VL L96Q (antibody, V domains shown)
VH: EVQLLESGGGLVQPGGSLRLSCAASGFTFSKYFMFWVRQAPGKGLEWVSVISPSGGMTRYADSVKGRFTISRDNSKNTLYLQMNSLRAEDTAVYYCARVGYGGNSDYWGQGTLVTVSS
VL: DIQMTQSPSSVSASVGDRLTIICRASQDINRWLAWYQQTPGNAPKLLIHSATSLQSGVPSRFSGSGSGTDFTLTINSLQPEDFATYYCQQADSFPQTFGGGTKVEIK

The target of this experiment is binding partner of C5A (XPA23). Description: Biacore K-off. (Surface plasmon resonance follows binding to a sensor surface in real time, without labels.)
With B1, the fold difference in affinity vs original came to 3.76 fold.

Consider B2, for which the fold difference in affinity vs original was found to be 0.88 fold.

For the molecule B3, the fold difference in affinity vs original turned out to be 1.47 fold. On to B4, for which the fold difference in affinity vs original was 0.07 fold. Regarding B5, the fold difference in affinity vs original was determined as 0.82 fold.

Regarding B6, the fold difference in affinity vs original was found to be 1.45 fold.

Consider B7, for which the fold difference in affinity vs original stood at 0.88 fold. Take B8: the fold difference in affinity vs original amounted to 2.96 fold. On to B9, for which the fold difference in affinity vs original worked out at 1.54 fold.

As for B10, the fold difference in affinity vs original worked out at 1.21 fold. In the case of B11 it was 0.85 fold; in that of B12, 0.83 fold. In the case of B13 it was 1.43 fold. In the case of B14 it was 9.64 fold; in that of B15, 4.05 fold. With B16, the fold difference in affinity vs original is 1.32 fold. B17: the fold difference in affinity vs original was found to be 0.06 fold.

For the molecule B18, the fold difference in affinity vs original is 0.06 fold.

As for B19, the fold difference in affinity vs original is 0.23 fold. The figure for B20 is 3.81 fold; for B21 it is 0.21 fold.
